We go through 16 molecules from publication PMC3466232, “FUS-NLS/Transportin 1 Complex Structure Provides Insights into the Nuclear Targeting Mechanism of FUS and the Implications in ALS” (PLoS ONE, 2012).

What all share (conditions): both partners purified
Assay [1] addresses T1, human transportin 1 (Trn1, residues 1-890) (human, UniProt Q92973-2 1-890).
T1 construct: transportin 1 (Trn1), human, full-length, residues 1-890; numbers count on: the 890-residue form; Cloned in pGEX-4T-3 with a TEV site; clone was a gift from Y. M. Chook; source: E. coli BL21 (DE3), purified (glutathione Sepharose, TEV cleavage, HiTrap Q FF, Superdex 200)
T1 sequence (looked up): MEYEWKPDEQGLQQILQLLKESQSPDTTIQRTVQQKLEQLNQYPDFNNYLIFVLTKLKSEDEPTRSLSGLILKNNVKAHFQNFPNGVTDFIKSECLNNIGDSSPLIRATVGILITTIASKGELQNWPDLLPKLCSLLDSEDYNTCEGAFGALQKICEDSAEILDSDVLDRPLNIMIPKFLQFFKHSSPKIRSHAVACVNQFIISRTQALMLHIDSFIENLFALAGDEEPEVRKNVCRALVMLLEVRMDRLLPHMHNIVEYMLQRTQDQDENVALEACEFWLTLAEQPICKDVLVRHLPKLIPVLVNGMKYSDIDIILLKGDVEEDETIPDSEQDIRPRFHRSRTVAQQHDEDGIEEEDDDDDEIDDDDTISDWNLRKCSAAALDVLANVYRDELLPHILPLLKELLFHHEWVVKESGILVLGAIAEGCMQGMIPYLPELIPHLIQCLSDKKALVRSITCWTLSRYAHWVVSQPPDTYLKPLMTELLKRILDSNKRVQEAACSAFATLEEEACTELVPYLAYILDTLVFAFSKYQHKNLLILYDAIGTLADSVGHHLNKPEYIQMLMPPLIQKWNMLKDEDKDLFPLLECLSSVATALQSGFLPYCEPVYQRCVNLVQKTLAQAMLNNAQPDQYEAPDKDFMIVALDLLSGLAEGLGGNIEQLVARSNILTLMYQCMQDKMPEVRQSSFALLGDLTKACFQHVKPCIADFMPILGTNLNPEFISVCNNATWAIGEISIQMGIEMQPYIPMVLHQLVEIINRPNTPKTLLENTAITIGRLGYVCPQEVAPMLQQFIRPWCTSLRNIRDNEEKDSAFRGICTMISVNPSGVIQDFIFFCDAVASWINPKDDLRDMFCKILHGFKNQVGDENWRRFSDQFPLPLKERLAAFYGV
Nature of the assay: SPR; BIAcore 3000, 25°C; Trn1 immobilised on a CM5 chip by amine coupling (about 8600 RU); FUS-NLS injected at increasing concentrations, 50 µl/min; 20 mM HEPES pH 7.3, 110 mM potassium acetate, 2 mM magnesium acetate, 2 mM EGTA, 2 mM DTT, 10% glycerol, 0.005% Tween 20; 1:1 Langmuir fit. (In SPR one partner is held on a chip, and binding of the other changes the refractive index at the surface.)

For assay [2], the target named is T1, human transportin 1 (Trn1, residues …). In words: SPR; BIAcore 3000, 25°C; Trn1 immobilised on a CM5 chip by amine coupling (about 8600 RU); same running buffer; kd too fast to be fit, KD from steady state equilibrium binding against the concentration of the injected protein.
Assay [3] shares this target. In words: SPR; BIAcore 3000, 25°C; Trn1 immobilised on a CM5 chip by amine coupling (about 8600 RU); FUS-NLS injected at increasing concentrations, 50 µl/min; 20 mM HEPES pH 7.3, 110 mM potassium acetate, 2 mM magnesium acetate, 2 mM EGTA, 2 mM DTT, 10% glycerol, 0.005% Tween 20; 1:1 Langmuir fit. The source holds these as a separate data set.

Where a chain is given by its changes, count along the chain named. In names and notes the source's numbering stands.

B1: nuclear localization sequence of human FUS (FUS-NLS, residues 495-526), wild type (domain or fragment, UniProt P35637 495-526, looked up)
chain: RGGRGGGDRGGFGPGKMDSRGEHRQDRRERPY
notes: Cloned in pGEX-6P-2; also called FUS-NLS(WT); WT; not shown: GST, N-terminal, cleaved
One may read the Kd as the constant that tells how readily two partners part at equilibrium. Higher therefore signals a looser complex. The koff is a measure of how fast the partners let go of each other. Read a high koff as a short-lived complex. As usually defined, the kon is the second-order rate constant of association. Low readings indicate slower complex formation, high ones faster complex formation. Take B1: in assay [1], the dissociation constant (Kd) was 0.0017 µM, the koff was 0.0037 s⁻¹ and the kon is 2.3e+06 M⁻¹ s⁻¹.

B2: FUS-NLS(R514G) (domain or fragment, human, UniProt P35637 495-526, looked up)
chain: B1 chain with R20G
notes: ALS-associated mutation found in patients; made by site-directed mutagenesis; not shown: GST, N-terminal, cleaved
For the molecule B2, binding in assay [2] was characterised by a dissociation constant (Kd) of 0.067 µM.

B3: FUS-NLS(Y526A) (domain or fragment, human, UniProt P35637 495-526, looked up)
chain: B1 chain with Y32A
notes: Designed from the structure; not found in familial ALS patients; not shown: GST, N-terminal, cleaved
As to B3, in assay [2], the Kd came out at 0.89 µM.

B4: FUS-NLS(K510E) (domain or fragment, human, UniProt P35637 495-526, looked up)
chain: B1 chain with K16E
notes: as for B2
In turn, B4 had a Kd in assay [2] of 0.15 µM.

B5: FUS-NLS(R522G) (domain or fragment, human, UniProt P35637 495-526, looked up)
chain: B1 chain with R28G
notes: as for B2
B5: in assay [2], the Kd is 0.35 µM.

B6: FUS-NLS(R521G) (domain or fragment, human, UniProt P35637 495-526, looked up)
chain: B1 chain with R27G
notes: as for B2
In assay [1], B6 returned a Kd of 0.025 µM, a dissociation rate constant (koff) of 0.0034 s⁻¹ and a kon of 140000 M⁻¹ s⁻¹.

B7: FUS-NLS(R518G) (domain or fragment, human, UniProt P35637 495-526, looked up)
chain: B1 chain with R24G
notes: as for B2
B7 came in with a Kd in assay [2] of 0.15 µM.

B8: FUS-NLS(G507D) (domain or fragment, human, UniProt P35637 495-526, looked up)
chain: B1 chain with G13D
notes: as for B2
In assay [1], B8 came in with an equilibrium dissociation constant (Kd) of 0.0078 µM, a koff of 0.044 s⁻¹ and an association rate constant (kon) of 5.7e+06 M⁻¹ s⁻¹.

B9: FUS-NLS(G515C) (domain or fragment, human, UniProt P35637 495-526, looked up)
chain: B1 chain with G21C
notes: as for B2
Turning to B9, in assay [1], the Kd came out at 0.0028 µM, the koff was 0.0051 s⁻¹ and the kon was 1.8e+06 M⁻¹ s⁻¹.

B10: FUS-NLS(H517P) (domain or fragment, human, UniProt P35637 495-526, looked up)
chain: B1 chain with H23P
notes: as for B2
With B10, in assay [2], the Kd is 0.14 µM.

B11: FUS-NLS(R518K) (domain or fragment, human, UniProt P35637 495-526, looked up)
chain: B1 chain with R24K
notes: as for B2
In assay [1], B11 showed a Kd of 0.013 µM, a koff of 0.078 s⁻¹ and an association rate constant (kon) of 6e+06 M⁻¹ s⁻¹.

B12: FUS-NLS(S513P) (domain or fragment, human, UniProt P35637 495-526, looked up)
chain: B1 chain with S19P
notes: as for B2
In assay [1], B12 displayed a Kd of 0.0024 µM, a koff of 0.023 s⁻¹ and an on-rate (kon) of 9.4e+06 M⁻¹ s⁻¹.

B13: FUS-NLS(E523Y) (domain or fragment, human, UniProt P35637 495-526, looked up)
chain: B1 chain with E29Y
notes: as for B3
On to B13, for which the binding result in assay [3] is “binds”.

B14: FUS-NLS(R524S) (domain or fragment, human, UniProt P35637 495-526, looked up)
chain: B1 chain with R30S
notes: as for B2
Turning to B14, in assay [1], the Kd amounted to 0.01 µM, the koff was 0.058 s⁻¹ and the kon worked out at 5.6e+06 M⁻¹ s⁻¹.

B15: FUS-NLS(E523S) (domain or fragment, human, UniProt P35637 495-526, looked up)
chain: B1 chain with E29S
notes: as for B3
For B15, in assay [1], binding was characterised by a dissociation constant (Kd) of 0.002 µM, the koff was 1.1e-05 s⁻¹ and the kon was determined as 5500 M⁻¹ s⁻¹.

B16: FUS-NLS(P525L) (domain or fragment, human, UniProt P35637 495-526, looked up)
chain: B1 chain with P31L
notes: as for B2
B16 registered a Kd in assay [2] of 1.2 µM.
